Test results published in paper PMC8318374.

Target: GFP-CC-tet-KLC1E^CTD (de novo-designed coiled-coil tetramer between GFP and KLC1E^CTD) (mouse)
Experiment: cross-linking

stoichiometry N: 4
Substance: GFP-CC-tet-KLC1E^CTD (de novo-designed coiled-coil tetramer between GFP and KLC1E^CTD)
